From patent publication EP4818205A1 (Beijing Wisdomab Biotechnology Co., Ltd, dated 2026)
Where a chain is given by its changes, count along the chain named. Read-outs that look alike come from different tables or passages of the source.

Columns and labels:
[1] = target: T1, recombinant protein His-fib-mfTL1A (Macaca fascicularis); experiment: SPR, Biacore T200; antibody captured by anti-human IgG (Fc), TL1A as analyte; 1:1 model
T1 construct: also called monkey TL1A; Macaca fascicularis TL1A
T1 chain: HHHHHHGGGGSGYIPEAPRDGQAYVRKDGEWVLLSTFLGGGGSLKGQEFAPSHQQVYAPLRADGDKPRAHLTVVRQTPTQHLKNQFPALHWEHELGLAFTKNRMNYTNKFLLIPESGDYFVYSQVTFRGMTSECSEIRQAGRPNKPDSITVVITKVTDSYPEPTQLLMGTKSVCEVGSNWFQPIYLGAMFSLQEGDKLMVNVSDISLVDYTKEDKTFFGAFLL

[2] = target: T2, recombinant protein His-fib-rTL1A (rat); experiment: SPR, Biacore T200; antibody captured by anti-human IgG (Fc), TL1A as analyte
T2 construct: also called rat TL1A
T2 chain: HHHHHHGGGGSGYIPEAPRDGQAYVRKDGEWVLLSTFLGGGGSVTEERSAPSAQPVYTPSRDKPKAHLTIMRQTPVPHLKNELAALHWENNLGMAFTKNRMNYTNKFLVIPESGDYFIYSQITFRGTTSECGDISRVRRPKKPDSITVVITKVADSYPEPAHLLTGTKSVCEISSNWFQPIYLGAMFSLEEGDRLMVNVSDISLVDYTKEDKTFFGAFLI

[3] = target: T3, recombinant protein His-fib-hTL1A (human); experiment: cell-based or functional assay
T3 chain: T1 chain with L82F, V121I

[4] = target: T3, recombinant protein His-fib-hTL1A; experiment: cell-based or functional assay
[5] = target: T4, recombinant protein His-fib-mTL1A (mouse); experiment: SPR, Biacore T200; antibody captured by anti-human IgG (Fc), TL1A as analyte
T4 construct: also called mouse TL1A
T4 chain: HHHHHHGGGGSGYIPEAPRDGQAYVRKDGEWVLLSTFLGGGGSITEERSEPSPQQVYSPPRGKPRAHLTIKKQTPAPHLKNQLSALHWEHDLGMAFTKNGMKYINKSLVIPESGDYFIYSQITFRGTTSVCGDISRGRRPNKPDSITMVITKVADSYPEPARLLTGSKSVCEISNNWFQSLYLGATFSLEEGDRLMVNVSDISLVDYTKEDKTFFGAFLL

[6] = target: T3, recombinant protein His-fib-hTL1A; experiment: SPR, Biacore T200; antibody captured by anti-human IgG (Fc), TL1A as analyte; 1:1 model
[7] = target: T3, recombinant protein His-fib-hTL1A; experiment: as above
[8] = target: T1, recombinant protein His-fib-mfTL1A; experiment: as above
[9] = target: T3, recombinant protein His-fib-hTL1A; experiment: cell-based or functional assay
[10] = target: T3, recombinant protein His-fib-hTL1A; experiment: cell-based or functional assay
[11] = target: T4, recombinant protein His-fib-mTL1A; experiment: SPR, Biacore T200; antibody captured by anti-human IgG (Fc), TL1A as analyte; 1:1 model
[12] = target: T2, recombinant protein His-fib-rTL1A; experiment: as above
[13] = target: T3, recombinant protein His-fib-hTL1A; experiment: cell-based or functional assay
[14] = target: T4, recombinant protein His-fib-mTL1A; experiment: SPR, Biacore T200; antibody captured by anti-human IgG (Fc), TL1A as analyte; 1:1 model

B1: anti-TL1A monoclonal antibody PRA023 (antibody, V domains shown)
VH: QVQLVQSGAEVKKPGASVKVSCKASGFDIQDTYMHWVKQRPGQGLEWMGRIDPASGHTKYDPKFQVRVTITRDTSTSTVYLELSSLRSEDTAVYYCARSGGLPDVWGQGTTVTVSS
VL: EIVLTQSPGTLSLSPGERATLSCRASSSVSYMYWYQQKPGQAPRPLIYATSNLASGIPDRFSGSGSGTDFTLTISRLEPEDFAVYYCQQWEGNPRTFGGGTKLEIK
[1]
  Kd: 0.0802 nM
  koff: 9.01e-05 s⁻¹
  kon: 1.12e+06 M⁻¹ s⁻¹
[2]
  binding result: no binding
[3]
  IC50 of inhibition of NF-kB activation in TL1A-stimulated 293T-hDR3-NF-kB-RE-luci cells: 2.81 nM
[4]
  IC50 of inhibition of interferon-gamma secretion by TL1A-stimulated PBMCs: 6.54 nM
[5]
  binding result: no binding
[6]
  Kd: 0.355 nM
  koff: 0.000169 s⁻¹
  kon: 476000 M⁻¹ s⁻¹
[7]
  Kd: 0.355 nM
  koff: 0.000169 s⁻¹
  kon: 476000 M⁻¹ s⁻¹
[8]
  Kd: 0.0802 nM
  koff: 9.01e-05 s⁻¹
  kon: 1.12e+06 M⁻¹ s⁻¹
[9]
  IC50 of inhibition of caspase activation in TL1A-stimulated TF-1 cells: 6.52 nM

B2: anti-TL1A monoclonal antibody RVT-3101 (antibody, V domains shown)
VH: QVQLVQSGAEVKKPGASVKVSCKASGYDFTYYGISWVRQAPGQGLEWMGWISTYNGNTHYARMLQGRVTMTTDTSTRTAYMELRSLRSDDTAVYYCARENYYGSGAYRGGMDVWGQGTTVTVSS
VL: EIVLTQSPATLSLSPGERATLSCRASQSVSSYLAWYQQKPGQAPRLLIYDASNRATGIPARFSGSGSGTDFTLTISSLEPEDFAVYYCQQRSNWPWTFGQGTKVEIK
[1]
  Kd: 0.0275 nM
  koff: 4.51e-05 s⁻¹
  kon: 1.64e+06 M⁻¹ s⁻¹
[10]
  IC50 of inhibition of caspase-3/7 activation in TL1A-stimulated TF-1 cells: 3.13 nM
[11]
  Kd: 0.0775 nM
  koff: 5.92e-05 s⁻¹
  kon: 764000 M⁻¹ s⁻¹
[3]
  IC50 of inhibition of NF-kB activation in TL1A-stimulated 293T-hDR3-NF-kB-RE-luci cells: 1.08 nM
[4]
  IC50 of inhibition of interferon-gamma secretion by TL1A-stimulated PBMCs: 13.6 nM
[12]
  Kd: 0.434 nM
  koff: 0.000424 s⁻¹
  kon: 978000 M⁻¹ s⁻¹
[13]
  IC50 of inhibition of NF-kB activation in TL1A-stimulated 293T-hDR3-NF-kB-RE-luci cells: 1.28 nM
[6]
  Kd: 0.154 nM
  koff: 0.0001 s⁻¹
  kon: 652000 M⁻¹ s⁻¹
[7]
  Kd: 0.144 nM
  koff: 0.000102 s⁻¹
  kon: 706000 M⁻¹ s⁻¹
[14]
  Kd: 0.0482 nM
  koff: 4.36e-05 s⁻¹
  kon: 904000 M⁻¹ s⁻¹
[8]
  Kd: 0.05 nM
  koff: 6.7e-05 s⁻¹
  kon: 1.34e+06 M⁻¹ s⁻¹
[9]
  IC50 of inhibition of caspase activation in TL1A-stimulated TF-1 cells: 3.46 nM

B3: mouse anti-TL1A monoclonal antibody S9H9 (antibody, V domains shown)
VH: QVQLKQSGAELVRPGTSVKISCKASGYAFTNYWLGWIKQRPGHGLEWIGDIHPGRGNIFYNEKFKGKATLTADKSSSTAYMQLSSLTSEDSAVYFCAEGYDTFDYWGQGTTLTVSA
VL: DIVMTQSHKFMSTSVGDRVSITCKASQDVSTAVAWYQQKPGQSPKLLIYSASYRYTGVPDRFTGSGSGTDFTFTISSVQAEDLAVYYCQQHYSTPWTFGGGTKLEMKR
[1]
  Kd: 0.0603 nM
  koff: 0.000175 s⁻¹
  kon: 2.9e+06 M⁻¹ s⁻¹
[10]
  IC50 of inhibition of caspase-3/7 activation in TL1A-stimulated TF-1 cells: 2.69 nM
[13]
  IC50 of inhibition of NF-kB activation in TL1A-stimulated 293T-hDR3-NF-kB-RE-luci cells: 1.28 nM
[6]
  Kd: 0.0374 nM
  koff: 0.000501 s⁻¹
  kon: 1.34e+07 M⁻¹ s⁻¹
[14]
  Kd: 37.2 nM
  koff: 0.00255 s⁻¹
  kon: 68600 M⁻¹ s⁻¹

B4: mouse anti-TL1A monoclonal antibody S7B11 (antibody, V domains shown)
VH: B3 VH with Q3K, K5Q, A9G, F59Y, A116S
VL: DIVMTQSPSYLAASPGETITINCRASKSISKYLAWYQEKPGKTNKLLIYSGSTLQSGIPSRFSGSGSGTDFTLTISSLEPEDFAMYYCQQHNEYPYTFGGGTKLEIKR
[1]
  Kd: 0.052 nM
  koff: 6.93e-05 s⁻¹
  kon: 1.32e+06 M⁻¹ s⁻¹
[10]
  IC50 of inhibition of caspase-3/7 activation in TL1A-stimulated TF-1 cells: 2.69 nM
[13]
  IC50 of inhibition of NF-kB activation in TL1A-stimulated 293T-hDR3-NF-kB-RE-luci cells: 1.35 nM
[6]
  Kd: 0.234 nM
  koff: 0.00011 s⁻¹
  kon: 470000 M⁻¹ s⁻¹
[14]
  Kd: 53.5 nM
  koff: 0.00366 s⁻¹
  kon: 68300 M⁻¹ s⁻¹

B5: mouse anti-TL1A monoclonal antibody S4D3 (antibody, V domains shown)
VH: QVQLKESGSDLATPGASVKLSCKVSGYTFTKYDINWVRQRPEQGLEWIGWIFPGDGRTDYNEKFKGKATLTIDTSSSTAYMQLSRLTSEDSAVYFCARYGYALDYWGQGTSVTVSS
VL: DVVMTQTPLSLPVSLGDQASISCRSSQNIVHSNGDTYLEWFLQKPGQSPKLLIYKVSNRFSGVPDRFSGSGSGTDFTLKISRVEAEDLGVYYCFQGSHFPYTFGGGTKLEMKR
[1]
  Kd: 0.0489 nM
  koff: 6.31e-05 s⁻¹
  kon: 1.29e+06 M⁻¹ s⁻¹
[10]
  IC50 of inhibition of caspase-3/7 activation in TL1A-stimulated TF-1 cells: 3.05 nM
[5]
  binding result: no binding
[13]
  IC50 of inhibition of NF-kB activation in TL1A-stimulated 293T-hDR3-NF-kB-RE-luci cells: 1.13 nM
[6]
  Kd: 0.247 nM
  koff: 0.000131 s⁻¹
  kon: 532000 M⁻¹ s⁻¹
